This is an account of results in article PMC4161314.

Several values for one entry are separate records, joined by “and”; a condition that tells them apart may be missing. Identical values can stand only once.

The target of the test is 20S proteolytic core of the proteasome, mouse liver (mouse (endogenous in mouse liver)) (UniProt O55234). In words: negative-stain electron microscopy; proteasomes co-purified with polyubiquitin conjugates on GstUBD beads, released at 37°C for 7 minutes, stained with 2% uranyl acetate; visual classification of side views, WT and PiZ samples.
Sequence of UniProt O55234 (O55234 whole entry, looked up): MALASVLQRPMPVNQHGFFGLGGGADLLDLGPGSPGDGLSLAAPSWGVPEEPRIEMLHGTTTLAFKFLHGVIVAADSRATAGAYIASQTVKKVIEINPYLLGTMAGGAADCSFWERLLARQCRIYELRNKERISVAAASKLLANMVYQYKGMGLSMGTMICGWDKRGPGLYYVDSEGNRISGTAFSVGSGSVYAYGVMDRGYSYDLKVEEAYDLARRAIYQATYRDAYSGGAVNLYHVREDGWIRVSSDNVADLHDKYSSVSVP

“19S activator of the proteasome, mouse liver (from UniProt P62334 1-389) (complex)”: the percent of proteasomes with at least one 19S cap was 93% and 90%.
